This is an account of results in patent US5516678.

This data set deals with SspI restriction endonuclease (native) (Sphaerotilus sp. ATCC 13925). Nature of the data set: cleavage_in_vitro. Particulars: Mono S fractions, homogeneous; lambda DNA assay stated in D-7.

The substance phage lambda DNA had an activity of 140000 units/mg.
